For one molecule, M (FL1-Height) results are on record in patent publication US20130303393A1.

This test has as its target NlpA-80R(scFv).

B1: M18.1 Hum IgG (antibody, V domains shown)
VH: EVQLVESGGGLVQPGGSLRLSCADSGYAFNSSWMNWVRQAPGKGLEWVGRIYPGDGDSNYNGKFEGRAIISADKSSSTAYLQMNSLRAEDTAVYYCARSGLLRYAMDYWGQGTLVTVSS
VL: DIQMTQSPSSLSASVGDRVTVTCRASQGIRNYLNWYQQKPGKAPKFLIYYTSRLLPGVPSRFSGSGSGTDYTLTINSLEQEDIATYYCQQGNTPPWTFGQGTKVEIKR
The molecule B1 had a M (FL1-Height) of 4.
